Experimental data taken from IntAct's records for PubMed 23804756.

B1: MIF4G domain-containing protein (Homo sapiens), A9UHW6 (parent)
chain: MGEPSREEYKIQSFDAETQQLLKTALKDPGAVDLEKVANVIVDHSLQDCVFSKEAGRMCYAIIQAESKQAGQSVFRRGLLNRLQQEYQAREQLRARSLQGWVCYVTFICNIFDYLRVNNMPMMALVNPVYDCLFRLAQPDSLSKEEEVDCLVLQLHRVGEQLEKMNGQRMDELFVLIRDGFLLPTGLSSLAQLLLLEIIEFRAAGWKTTPAAHKYYYSEVSD

Variants of: B1
Details: with slbp_human SLBP

| effect of a mutation on the interaction | Variant |
| --- | --- |
| decreasing interaction strength | R77A;N81A;Q84A |
